Test results taken from doi:10.1101/2021.12.15.472832.

Target: mouse PARP13 ZnF5-WWE1-WWE2 (residues 476 to 673) (mouse) (UniProt Q3UPF5)
Experiment: SEC-MALS

mouse PARP13 ZnF5-WWE1-WWE2 (residues 476 to 673) (from UniProt Q3UPF5 476-673) (domain or fragment)
percent of the scattering mass in the dimer peak: 4%
stoichiometry N: 2
